Target: His-tagged proaerolysin (Aeromonas hydrophila) (UniProt P09167)
Assay: SEC

His-tagged proaerolysin (from UniProt P09167 24-445) (natural protein)
stoichiometry N: 2
